PMC6853222

Legend:
[1] = biological target: GII.3 huNoV TV24 P protein (GII.3 human norovirus TV24); assay: crystal structure; TV24 P protein, native and with A tetrasaccharide; hanging drop vapor diffusion, 9.6% PEG 3350, 160 mM ammonium citrate tribasic pH 7.0, 20 mM tri-sodium citrate pH 5.6, 500 mM 1,6-hexanediol, 20 °C; homodimers in the asymmetric unit
[2] = biological target: GII.11 porNoV VA34 P protein (GII.11 porcine norovirus VA34); assay: crystal structure; VA34 P protein, native; hanging drop vapor diffusion, 100 mM Tris pH 8.0, 16% PEG 3350, 6% tacsimate pH 8.0, 20 °C

Substance	stoichiometry N [1]	stoichiometry N [2]
GII.3 huNoV TV24 P protein (domain or fragment)	2	–
GII.11 porNoV VA34 P protein (domain or fragment)	–	2
